Substitutions are numbered along the chain they refer to. Blank lines part the entries; values can stand above or below the binder they belong to.
Key:
PD-1 expressed on cells [1] = target: T1, PD-1 expressed on cells (human, UniProt Q15116 25-288); experiment: flow cytometry on PD-1 expressing Flp-In CHO cells
T1 construct: also called PD-1 expressed in CHO cells

[2] = target: T2, human PD-1 (soluble PD-1 protein, R&D Systems) (human, UniProt Q15116 25-170, limits assumed); experiment: BLI (Octet Red96), mAb on AHC biosensor, PD-1 as analyte
T2 construct: the kinetics paragraphs say only 'PD-1' / 'antigen'; also called hPD-1; soluble PD-1 immunogen
Experimental: (§1) For BLI, antibodies were loaded onto an Anti-Human IgG Fc (AHC) biosensor using the Octet Red96 system (ForteBio). Loaded biosensors were dipped into antigen dilutions beginning at 300 nM, with 6 serial dilutions at 1:3. Kinetic analysis was performed using a 1:1 binding model and global fitting.

Cyno PD-1 = target: T3, Cyno PD-1 (cyno); experiment: BLI, mAb on AHC biosensor, cyno PD-1 as analyte
T3 construct: also called cynomolgus PD-1
Experimental: The binding specificity and affinity of each full-length antibody towards PD-1 were determined using BLI and/or SPR. […] Anti-cyno PD-1 affinity was measured using BLI.
as §1

[3] = target: T2, human PD-1 (soluble PD-1 protein, R&D …); experiment: array SPR, mAb captured on anti-human IgG Fc, PD-1 as analyte
Experimental: (§2) For SPR, a moderate density (»1,000 Response Units) of an antihuman IgG-Fc reagent (Southern Biotech 2047-01) was amine-coupled to a Xantec CMD-50M chip (50 nm carboxymethyldextran medium density of functional groups) activated with 133 mM EDC (Sigma) and 33.3 mM S-NHS (ThermoFisher) in 100 mM MES pH 5.5. Then, goat anti-Human IgG Fc (Southern Biotech 2047-01) was coupled for 10 minutes at […] in 10 mM Sodim Acetate pH 4.5 (Carterra Inc.). The surface was then deactivated with 1 M ethanolamine pH 8.5 (Carterra Inc.). Running buffer used for the lawn immobilization was HBS-EPC (10 mM HEPES, 150 mM NaCl, 3 mM EDTA, 0.05% Tween 20, pH 7.4; Teknova).
(§3) The sensor chip was then transferred to a continuous flow microspotter (CFM; Carterra Inc.) for array capturing. The mAb supernatants were diluted 50-fold ([…] final concentration) into HBS-EPC with 1 mg/mL BSA. The samples were each captured twice with 15-minute and 4-minute capture steps on the first and second prints, respectively, to create multiple densities, using a […] flow rate. The running buffer in the CFM was also HBS-EPC.
(§4) Next, the sensor chip was loaded onto an SPR reader (MX-96 system; Ibis Technologies) for the kinetic analysis. […] PD-1 injections were 5 minutes with a 15-minute dissociation at […] in a non-regenerative kinetic series. An injection of the goat anti-Human IgG Fc capture antibody at […] was injected at the end of the series to verify the capture level of each mAb. Binding data was double referenced by subtracting an interspot surface and a blank injection and analyzed for ka (on-rate), kd (off-rate), and KD (affinity) using the Kinetic Interaction Tool software (Carterra Inc.).

[4] = target: T2, human PD-1 (soluble PD-1 protein, R&D …); experiment: array SPR (Carterra), mAb captured, PD-1 as analyte
Experimental: as §2, §3, §4

PD-1 expressed on cells [5] = target: T1, PD-1 expressed on cells; experiment: cell-based or functional assay

T2 sequence (Q15116 25-170 limits assumed): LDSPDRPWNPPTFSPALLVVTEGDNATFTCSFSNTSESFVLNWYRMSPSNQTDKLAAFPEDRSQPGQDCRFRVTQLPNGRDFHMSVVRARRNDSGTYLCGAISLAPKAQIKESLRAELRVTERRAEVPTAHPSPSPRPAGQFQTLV
T1 sequence (Q15116 25-288 limits assumed): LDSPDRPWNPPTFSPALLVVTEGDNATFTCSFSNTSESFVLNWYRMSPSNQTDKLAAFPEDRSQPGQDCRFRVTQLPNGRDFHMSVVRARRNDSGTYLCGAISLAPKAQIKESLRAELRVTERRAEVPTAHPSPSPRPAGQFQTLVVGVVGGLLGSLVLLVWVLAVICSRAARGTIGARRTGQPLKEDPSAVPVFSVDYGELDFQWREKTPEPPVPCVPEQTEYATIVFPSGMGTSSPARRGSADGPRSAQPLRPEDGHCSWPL

B3: A8 (antibody, V domains shown)
VH: QVQLVESGGGVVQPGRSLRLSCAASGFTFSSYGMHWVRQAPGKGLEWVAVIWYDGSIKYYADSVKGRFTISRDNSKNTLYLQMNSLRAEDTAVYYCANDILTGSFDYWGQGTLVTVSS
VL: EIVLTQSPATLSLSPGERATLSCRASQSVSSYLAWYQQKPGQAPRLLIYDASNRATGIPARFSGSGSGTDFTLTISSLEPEDFAVYYCQQRNTWPYTFGQGTKLEIKR
notes: Tested as full-length mAb expressed in CHO cells; also called antibody A8; L8H8
Kd [3]: 410 nM
Kd [4]: 410 nM
koff [4]: 0.035 s⁻¹
kon [4]: 84000 M⁻¹ s⁻¹
Kd (Cyno PD-1): 447 nM

B4: A6 (antibody, V domains shown)
VH: QVQLVESGGGVVQPGRSLRLSCAASGFTFSSYGMHWVRQAPGKGLEWVAVIWYDGSNKYYADSVKGRFTISRDNSKNTLYLQMNSLRAEDTAVYYCAGGGNYWGDFWGQGTLVTVSS
VL: DIQMTQSPSSLSASVGDRVTITCRASQGIRNDLGWYQQKPGKAPKRLLYAASNLQLGVPSRFSGSGSETEFTLTISSLQPEDFATYYCLQHNSYPWTFGQGTKVEIKR
notes: Tested as full-length mAb expressed in CHO cells; also called antibody A6; L6H6
PD-1/PD-L1 blockage (IC50, µg/ml) (PD-1 expressed on cells [5]): 1.12 µg/mL
Kd [3]: 70 nM
Kd [4]: 70 nM
koff [4]: 0.00086 s⁻¹
kon [4]: 12000 M⁻¹ s⁻¹
Kd (Cyno PD-1): 26 nM

B6: A4 (antibody, V domains shown)
VH: QVQLVQSGAEVKKPGASVKVSCKASGYTFATYGVSWVRQAPGQGLEWMGWISAYSDNINYAQNLQGRVTITTDTSTSTAYMELRSLRSDDTAVYYCARDGSHGDYYYGMDVWGQGTTVTVSS
VL: DIQMTQSPSSLSASVGDRVTITCRASQGISSWLAWYQQKPEKAPKSLIYAASSLQSGVPSRFSGSGSGTDFTLTISSLQPEDFATYYCQQYNSYPYTFGQGTKLEIKR
notes: Tested as full-length mAb expressed in CHO cells; also called antibody A4; L4H4
PD-1/PD-L1 blockage (IC50, µg/ml) (PD-1 expressed on cells [5]): 2.12 µg/mL
Kd [3]: 20 nM
Kd [4]: 20 nM
koff [4]: 0.00025 s⁻¹
kon [4]: 12000 M⁻¹ s⁻¹
Kd (Cyno PD-1): 0.1 nM

B7: A9 (antibody, V domains shown)
VH: QVQLVESGGGVVQPGRSLRLSCAASGFTFSNYGMHWVRQAPGKGLEWVAVIWYDGTNKFYADSVKGRFTISRDNSKNTLYLQMNSLRAEDTAVYYCATNSDDYWGQGTLVTVSS
VL: AIQMTQSPSSLSASVGDRVTITCRASQDIRNDLGWYQQKPGKAPKLLIYAASLLRSGVPSRFSGSGSGTDFTLTISSLQPEDFATYYCLQDNNYPRTFGQGTKVEIK
notes: Tested as full-length mAb expressed in CHO cells; also called antibody A9; L9H9
PD-1/PD-L1 blockage (IC50, µg/ml) (PD-1 expressed on cells [5]): 0.461 µg/mL
Kd [3]: 24 nM
Kd [4]: 24 nM
koff [4]: 0.00079 s⁻¹
kon [4]: 32000 M⁻¹ s⁻¹
Kd (Cyno PD-1): 42 nM

More lines, main results first:

binding result (PD-1 expressed on cells [1]): binds
B1: A14 (antibody, V domains shown)
VH: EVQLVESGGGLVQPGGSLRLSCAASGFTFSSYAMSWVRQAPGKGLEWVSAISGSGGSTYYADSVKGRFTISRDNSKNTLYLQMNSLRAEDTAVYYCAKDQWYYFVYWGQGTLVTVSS
VL: DIQMTQSPSSLSASVGDRVTITCRASQGIRNDLGWYQQKPGKAPKRLIYVASSLQSGVPSRFSGSGSGTEFTLTISSLQPEDFATYYCLQHNSYPLTFGGGTKVEIK
notes: Tested as full-length mAb expressed in CHO cells; also called antibody 14; L14H14
binding result [2]: no binding (tested: antigen dilutions beginning at 300 nM)

Kd (Cyno PD-1): 14 nM
B2: Pembrolizumab (antibody, V domains shown)
VH: QVQLVQSGVEVKKPGASVKVSCKASGYTFTNYYMYWVRQAPGQGLEWMGGINPSNGGTNFNEKFKNRVTLTTDSSTTTAYMELKSLQFDDTAVYYCARRDYRFDMGFDYWGQGTTVTVSS
VL: EIVLTQSPATLSLSPGERATLSCRASKGVSTSGYSYLHWYQQKPGQAPRLLIYLASYLESGVPARFSGSGSGTDFTLTISSLEPEDFAVYYCQHSRDLPLTFGGGTKVEIKR

PD-1/PD-L1 blockage (IC50, µg/ml) (PD-1 expressed on cells [5]): 1.64 µg/mL
Kd [3]: 10 nM
Kd [4]: 10 nM
koff [4]: 6.9e-05 s⁻¹
kon [4]: 6600 M⁻¹ s⁻¹
Kd (Cyno PD-1): 12 nM
B5: A10 (antibody, V domains shown)
VH: B6 VH with T31I, V34I, I58S, N63K, I70M, A97V
VL: DIQMTQSPSSLSASVGDRVTITCRASQGISSWLAWYQQKPEKAPKSLIYAASSLQSGVPSRFSGSGSGTDFTLTISSLQPEDFATYYCQQYNSYPYTFGQGTKLEIK
notes: Tested as full-length mAb expressed in CHO cells; also called antibody A10; L10H10
